Assay results taken from patent US20200384079A1, “Compositions of Fibroblast Growth Factor LIgands and Methods of Treating Patients Undergoing Ischemia-Reperfusion Therapy” (University of Cincinnati, priority 2017, published 2020).
“Also recorded” adds a separate entry of the source.

Legend:
FGFR1 = FGFR1 activation (phosphorylation) in left ventricle, immunoblot; set-up: species or system rat; settings: in vivo, after 15 minutes of treatment
Protocol: One-half of each snap-frozen heart was powdered and homogenized in protein extraction buffer as previously described by our laboratory. For FGFR1, 150 μg of total protein were loaded onto a 8% SDS-PAGE gel, for ERK1/2 activation, 20 μg of whole cell protein homogenate was loaded onto a 15% SDS-PAGE gel, and for PKCα and PKCδ, […] of whole cell protein homogenate was loaded onto a 10% SDS-PAGE gel and then transferred to nitrocellulose membrane. 0.1% Ponceau S in 5% acetic acid was used to examine the transfer efficiency and loading equality as described previously 43. Membranes were blocked with 5% dry milk and then incubated with primary antibody against phospho-FGFR1 (Y-654, 1:500, Cell Signaling), phospho-ERK1/2 (1:1000, Cell Signaling) or phospho-PKCα (1:500, Santa Cruz) or phospho-PKCδ (1:500, Santa Cruz) followed by incubation with HRP-conjugated secondary goat anti-rabbit antibody (1:3000, Santa Cruz Biotechnology). […]
Construction of his-tagged native and heparin-binding modified rhFGFs as well as their expression and purification is performed as previously described using his-tagged expression vectors and nickel-nitrilotriacetic acid resin columns. […] His-tagged FGFs are detected in solid organs by ELISA (FIG. 14) both for FGF and histidine (data not shown), and immunoprecipitation (IP) followed by immunoblot and in plasma by ELISA as described previously. […]

wildtype mouse hearts = assay: Ex vivo model, low-flow ischemia and reperfusion; settings: 10 μg immediately at reperfusion; 60 minutes low-flow ischemia, 60 minutes reperfusion
Excerpt: FIGS. 12A-12B. […] Left bar is vehicle-treated and right bar is FGF2-treated wildtype mouse hearts.

[1] = Pharmacokinetic evaluation after intraperitoneal dose (serum ELISA); format: in vivo, rat; settings: single intraperitoneal dose 0.5 mg/kg
Protocol: CVR-2016-799R1 signaling and the other two sets were to evaluate the pharmacokinetic properties of native FGF1 and modified FGF1 (FGF1^ΔHBS). The first set of experiments was for the ischemia/reperfusion study in which animals were divided into six groups as follows: (1) saline group: saline treatment given intravenously for 10 minutes immediately upon reperfusion, (2) heparin group: heparin, 60 U/kg intravenous (i.v.) bolus, given immediately at reperfusion+12 U/kg/hr i.v. infusion for 120 minutes of reperfusion, (3) FGF1 group: FGF1, 10 μg/kg i.v. infusion, given for 10 minutes immediately at reperfusion, (4) FGF1+heparin: heparin, 60 U/kg bolus, given immediately upon reperfusion followed by FGF1, 10 μg/kg i.v. infusion, given for 10 minutes and 12 U/kg/hr i.v. infusion given for 110 minutes of reperfusion, (5) modified FGF1 (FGF1^ΔHBS) group: FGF1^ΔHBS, 10 μg/kg i.v. infusion, given for 10 minutes, or (6) FGF1^ΔHBS+heparin: heparin, 60 U/kg bolus, given immediately at reperfusion followed by FGF1^ΔHBS, 10 μg/kg i.v. infusion, given for 10 minutes and 12 U/kg/hr i.v. infusion for 110 minutes of reperfusion. All rats were subjected to 30 minutes of regional ischemia and 120 minutes of reperfusion. Drugs were administered at the onset of reperfusion via the jugular vein (FIG. 2A). […] A total of ninety-six rats was completed for the I/R study. Sample size for each group ranged from 9-16 depending on the power analysis. A total of thirty-five rats were excluded from the study based on the lack of cyanosis of the heart or typical elevation of the ST segment in the electrocardiogram during ischemia, and death from malignant arrhythmia. For the biodistribution or FGF1 signaling study, rats were randomly divided into six groups as described above (FIG. 2B). Following drug treatment (immediately following 15 minutes of treatment or 105 minutes post-treatment at the point which mimics the length of time of reperfusion), solid organs and blood (see sections “Tissue collection for exogenous FGF1 biodistribution” and “Cardiac preparation to detect the activation of FGF1 downstream molecules”) were collected. A total of 33 rats were used for biodistribution and FGF1 signaling studies, and 3 rats were excluded due to anesthetic overdose. Also, a total of 8 plasma samples were excluded because of hemolysis. For elimination half-life of native FGF1 and FGF1^ΔHBS, 12 rats were randomly divided into two groups and treated intraperitoneally with either FGF1 form as described in the section “Pharmacokinetic evaluation of exogenous FGF1 or FGF1^ΔHBS ”.
The in vivo half-life of FGF1 or FGF^ΔHBS (given as a single, intraperitoneal dose of
0.5 mg/kg body weight) was assessed, using the human FGF1 immunoassay ELISA kit (R&D System, MN), from blood (i.e., serum) collected at varying times as described previously. The pharmacokinetic parameters of FGF1 or FGF1^ΔHBS were analyzed using the Drug and […]

FGF1: native recombinant human fibroblast growth factor 1
FGFR1 activation (phosphorylation, Y-654) in left ventricle (in words) (FGFR1): elevated
contractile function (+dP/dt) compared to vehicle (in words) (wildtype mouse hearts): significant enhancement of contractile function
infarct size compared to vehicle (in words) (wildtype mouse hearts): significant reduction in infarct size

B1: FGF1^ΔHBS: FGF1 mutant carrying the K127D/K128Q/K133V triple mutation in its HS-binding region; reduced heparin-binding affinity (protein)
chain: MAEGEITTFTALTEKFNLPPGNYKKPKLLYCSNGGHFLRILPDGTVDGTRDRSDQHIQLQLSAESVGEVYIKSTETGQYLAMDTDGLLYGSQTPNEECLFLERLEENHYNTYISKKHAEKNWFVGLDQNGSCVRGPRTHYGQKAILFLPLPVSSD
absorption phase half-life (in words) ([1]; non-compartmental): not significantly different from FGF1
elimination phase half-life (in words) ([1]; non-compartmental, 0.5 mg/kg): not significantly different from FGF1
area-under-curve (AUC), fold greater than FGF1 ([1]; serum): 2 fold
maximum serum concentration (Cmax), fold greater than FGF1 ([1]; serum): 4 fold
time to reach maximum serum concentration (Tmax) (in words) ([1]; 0.5 mg/kg): reached earlier than with FGF1; also recorded: relatively fast
FGFR1 activation (phosphorylation, Y-654) in left ventricle (in words) (FGFR1): elevated
